{"source": "FireProtDB (doi:10.1111/j.1432-1033.1993.tb17904.x)", "proteins": {"B1": {"name": "Papain wild type, P00784 (protein)", "chain": "MAMIPSISKLLFVAICLFVYMGLSFGDFSIVGYSQNDLTSTERLIQLFESWMLKHNKIYKNIDEKIYRFEIFKDNLKYIDETNKKNNSYWLGLNVFADMSNDEFKEKYTGSIAGNYTTTELSYEEVLNDGDVNIPEYVDWRQKGAVTPVKNQGSCGSCWAFSAVVTIEGIIKIRTGNLNEYSEQELLDCDRRSYGCNGGYPWSALQLVAQYGIHYRNTYPYEGVQRYCRSREKGPYAAKTDGVRQVQPYNEGALLYSIANQPVSVVLEAAGKDFQLYRGGIFVGPCGNKVDHAVAAVGYGPNYILIKNSWGTGWGENGYIRIKRGTGNSYGVCGLYTSSFYPVKN"}}, "settings": "Carica papaya, Thermal, DSC, glycine-HCl 5 mM, reversible: yes, whole UniProt chain shown", "note": "Where “and” joins values, the source holds several entries; their conditions need not be identical. Identical values can stand only once.", "data": [{"protein": "B1", "values": [{"measurement": "unfolding enthalpy (calorimetric)", "setting": "pH 1.9", "value": "119 kcal/mol and 98.7 kcal/mol"}, {"measurement": "unfolding enthalpy (van 't Hoff)", "setting": "pH 1.9", "value": "65.2 kcal/mol and 50.6 kcal/mol"}, {"measurement": "unfolding enthalpy (calorimetric)", "setting": "pH 2.4", "value": "133 kcal/mol and 143 kcal/mol and 111 kcal/mol"}, {"measurement": "unfolding enthalpy (van 't Hoff)", "setting": "pH 2.4", "value": "72.6 kcal/mol and 82.3 kcal/mol and 62.9 kcal/mol"}, {"measurement": "Tm", "setting": "pH 2.9", "value": "69.5 °C and 70.4 °C"}, {"measurement": "unfolding enthalpy (calorimetric)", "setting": "pH 2.9", "value": "154 kcal/mol and 162 kcal/mol"}, {"measurement": "unfolding enthalpy (van 't Hoff)", "setting": "pH 2.9", "value": "79.6 kcal/mol and 89.2 kcal/mol"}, {"measurement": "unfolding enthalpy (calorimetric)", "setting": "pH 3.5", "value": "206 kcal/mol and 226 kcal/mol and 189 kcal/mol"}, {"measurement": "unfolding enthalpy (van 't Hoff)", "setting": "pH 3.5", "value": "113 kcal/mol and 118 kcal/mol and 98.9 kcal/mol"}, {"measurement": "unfolding enthalpy (calorimetric)", "setting": "pH 3.9", "value": "229 kcal/mol and 232 kcal/mol and 198 kcal/mol"}, {"measurement": "unfolding enthalpy (van 't Hoff)", "setting": "pH 3.9", "value": "132 kcal/mol and 130 kcal/mol and 114 kcal/mol"}]}]}
